The series has as its system MS2 coat protein. Briefly: apparent KD of MS2 coat protein; designed switch direction (-1 OFF switch, 1 ON switch): -1; higher = weaker reporter binding. In short, it runs like this:
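Stalled E. coli RNA polymerase transcribed designed RNA switches on Illumina chips, which were then titrated with SNAP-549-labelled MS2 coat protein, doubling from 0.7 or 1.5 nM to 3 µM. Steps lasted from 0.8–1.5 h at the lowest concentration to 10–20 min at the highest. The apparent KD is each design's median over clusters of curve-fitted normalised fluorescence.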

The mark [1] stands for this setting: Eterna round: R95, input ligand: microRNA oligo, concentration not stated.
The mark [2] stands for this setting: input ligand: microRNA oligo, concentration not stated.
Where [3] appears, read: Eterna round: R95, input ligand: FMN 200 uM.
Setting [4] is: Eterna round: R95, input ligand: none.

With “AAUCCACAUGAGGAUCACCCAUGUGAGGAUAUGAUACUAUGUACUUCGGUACAUAGUAUCAGAAGGCACAUAAA [Ex1-3: 51] (puzzle: Exclusion 1)”, the “apparent KD of MS2 coat protein” value under setting [1] turned out to be 28.4 nM.

On to “AAUGAUUGACGAGGAUAUUGUGUUAGAUCACGACGAGAAGGCGUCUGUCACAUGAGGAUCACCCAUGUGAGCCUGGUGGAUGGG [Ex NG1 #79] (Eterna round: R96, puzzle: Exclusion NG 1)”, for which the “apparent KD of MS2 coat protein” value runs as follows: (input ligand: FMN 200 uM) 41.7 nM; under setting [2], 22.3 nM; (input ligand: none) 26.7 nM.

In the case of “AAUGAUUGAUGAGGAUAUUGUGGUGAAACACGACGAGAAGGCAUAUGUCACAUGAGGAUCACCCAUGUGAGCUUUGUGGAUAUA [Ex NG1 #67] (Eterna round: R96, puzzle: Exclusion NG 1)”, under setting [2], the “apparent KD of MS2 coat protein” value is 18.3 nM.

Take “AAUGCCAGAGGAUAUACAUGAGGAUCACCCAUGUUAAAUGAUCCUGUGCUAGAUGCACGUAGAAGGCUGUAAAA [EX3 A.8] (Eterna round: R97, puzzle: Exclusion 3)”: the “apparent KD of MS2 coat protein” value worked out at 15.5 nM (input ligand: FMN 200 uM) and 12.9 nM (input ligand: none).

Take “AAUGCCAGUGUCAGGAUAUCCGGAGGGAAACCUCCGGAGAAGGGACAUGAGGAUCACCCAUGUAUGUAACCUGC [AK-MS2ROC-r4-Bmoexclusion4-7] (Eterna round: R97, puzzle: Brourd's mod of Exclusion 4)”: the “apparent KD of MS2 coat protein” value runs as follows: (input ligand: FMN 200 uM) 35.2 nM; (input ligand: none) 23.6 nM.

For “AAUGGUAAAGUCAGGAUAUACGUAAAUCGUUCUAGGUAGAAGGGACAUGAGGAUCACCCAUGUAUGAUAGUAAA [Ex4 #32] (Eterna round: R97, puzzle: Brourd's mod of Exclusion 4)”, the “apparent KD of MS2 coat protein” value by setting is: (input ligand: FMN 200 uM) 31.9 nM; (input ligand: none) 35.4 nM.

Turning to “AAUGGUAAAGUCAGGAUAUACGUACGUCGUUCUAGGUAGAAGGGACAUGAGGAUCACCCAUGUAUGAUAGUAAA [Ex4 #34] (Eterna round: R97, puzzle: Brourd's mod of Exclusion 4)”, the “apparent KD of MS2 coat protein” value runs as follows: (input ligand: FMN 200 uM) 24.1 nM; (input ligand: none) 32.9 nM.

For the sequence “AAUGUGUGAGGAUAUUAAUUGUAAUUGAAUAGAAUUAUGAUUGAGAAGGCACAUGAGGAUCACCCAUGUUCCAA [JR_Ex4_Sub082] (Eterna round: R97, puzzle: Exclusion 4)”, the “apparent KD of MS2 coat protein” value runs as follows: (input ligand: FMN 200 uM) 187 nM; (input ligand: none) 31.2 nM.

Regarding “AAUGUUUGAUACCUUUAAUACAUGAGGAUCACCCAUGUUAUCGAGGAUAUGUAGAUGAAAUGAGAACAGAAGGCGAAGUAAGAG [JR_ExcNG3_Sub098] (Eterna round: R96, puzzle: Exclusion NG 3)”, the “apparent KD of MS2 coat protein” value by setting is: (input ligand: FMN 200 uM) 19.5 nM; under setting [2], 9.73 nM; (input ligand: none) 24.4 nM.

Take “AAUUAACAAGCAGGAUCCUACAUGAGGAUCACCCAUGUGCUCGUCUUAUAAAGUACUAUCACGAAAGUGAUAGUACA [Mat - Sensor v3 - turn-off var 1 - Eli Mod - D74] (puzzle: Sensor v3, turn-off variant 1)”: the “apparent KD of MS2 coat protein” value was determined as 224 nM under setting [3], 566 nM under setting [1] and 197 nM under setting [4].

On to “AAUUAACAAGCGAGAUCCUACAUGAGGAUCACCCAUGUGCUCGUCUUAUAAAGUACUAUCACGAAAGUGAUAGUACA [Mat - Sensor v3 - turn-off var 1 - Eli Mod - D64] (puzzle: Sensor v3, turn-off variant 1)”, for which the “apparent KD of MS2 coat protein” value reads like this: under setting [3], 21.8 nM; under setting [1], 215 nM; under setting [4], 19.5 nM.

Turning to “AAUUAACAUCAGGAUAUGACUAGCCUCGGCUAGUCAGAAGGGAUGACAUGAGGAUCACCCAUGUGAUCAAUUAA [E6/2-A2] (Eterna round: R97, puzzle: Exclusion 6)”, the “apparent KD of MS2 coat protein” value (input ligand: FMN 200 uM) stood at 392 nM and the “apparent KD of MS2 coat protein” value (input ligand: none) came to 108 nM.

Consider “AAUUAGCAAGCGAGAUCCCACAUGAGGAUCACCCAUGUGCUCGUCUUAUAAGGUACUGUGACAAAAGUCACGGUACC [Mat - Sensor, turn-off var - Eli Mod - D18] (Eterna round: R97, puzzle: Sensor, turn-off variant 1)”, for which the “apparent KD of MS2 coat protein” value by setting is: (input ligand: FMN 200 uM) 17.9 nM; (input ligand: none) 18.1 nM.

For the sequence “AAUUAGUGAGGAUAUACUAACAGUGAUAGUAGAUAGUGGAUGUAGAAGGCACAUGAGGAUCACCCAUGUUAUAA [EX4 #51] (Eterna round: R97, puzzle: Exclusion 4)”, the “apparent KD of MS2 coat protein” value came out at 39.1 nM (input ligand: FMN 200 uM) and 33.5 nM (input ligand: none).

“AAUUAUUAUUGAGGAUAUCGUAGUGAAACACUACGAGAAGGCGGUAUAAACAUGAGGAUCACCCAUGUGAGCCUGAUGCUUAUG [Ex NG1 #44] (Eterna round: R96, puzzle: Exclusion NG 1)”: the “apparent KD of MS2 coat protein” value under setting [2] came out at 20.6 nM.

On to “AAUUAUUAUUGAGGAUAUCGUAUUGAAACAAUACGAGAAGGCGGAAUAAACAUGAGGAUCACCCAUGUGAGCCUGAUGCUUAUG [Ex NG1 #43] (Eterna round: R96, puzzle: Exclusion NG 1)”, for which the “apparent KD of MS2 coat protein” value under setting [2] was found to be 21.1 nM.

Consider “AAUUAUUGAUGAGGAUAUUGUGGUGAAACACGACAAGAAGGCAUUUUUCACAUGAGGAUCACCCAUGUGAGCCUUGUGCAUAUA [Ex NG1 #62] (Eterna round: R96, puzzle: Exclusion NG 1)”, for which the “apparent KD of MS2 coat protein” value runs as follows: (input ligand: FMN 200 uM) 17.3 nM; under setting [2], 11.5 nM; (input ligand: none) 15.2 nM.

Take “AAUUCACAUGAGGAUCACCCAUGUCAGGAUAUGGUGACGCGGGUUUCGGUGCGUGUUGCCAGAAGGGACGGCUG (puzzle: Exclusion 1)”: the “apparent KD of MS2 coat protein” value under setting [1] amounted to 92.4 nM.

As for “AAUUCACAUGAGGAUCACCCAUGUGAGGAUAUGGUUUCGCUGGCCGUAGCCAGUGGAACCAGAAGGCGCAUGAU [Mat - Exclusion 1 - JL Mod - D11] (Eterna round: R97, puzzle: Exclusion 1)”, the “apparent KD of MS2 coat protein” value is, setting by setting: (input ligand: FMN 200 uM) 30.7 nM; (input ligand: none) 28.9 nM.

In the case of “AAUUUACAUGAGGAUCACCCAUGUGAGGAUAUAUGCAAACAAUUUUUAUUAAUAAAGCAUAGAAGGCGCGUGAU [JR_Exc1_Sub043] (Eterna round: R97, puzzle: Exclusion 1)”, the “apparent KD of MS2 coat protein” value by setting is: (input ligand: FMN 200 uM) 90.5 nM; (input ligand: none) 65.7 nM.

On to “ACAAAGGUAGGAUAUCGGACUAUGGACAUGAGGAUCACCCAUGUGCGUCCAAUGCCCAACCGAGAAGGACCAACAG [Isindiedbe] (puzzle: Exclusion 5)”, for which the “apparent KD of MS2 coat protein” value under setting [1] stood at 43.7 nM.

On to “ACAACAUGAGGAUCACCCAUGUGUGUUGUCCCAUGUGUGUAUAAGGAUAUAUGAAGGAAGGAGGAAUAGAAGGUAUAGAAGGAG [Am I even doing this right] (Eterna round: R96, puzzle: Exclusion NG 3)”, for which the “apparent KD of MS2 coat protein” value is, setting by setting: (input ligand: FMN 200 uM) 84.1 nM; under setting [2], 9.25 nM; (input ligand: none) 1200 nM.

For the sequence “ACAACCGGAGGAUAUACGUAUUCAUCACUCAACGCGGAACGACAUGAGGAUCACCCAUGUAGAAGGCCGAGAGU [EX2 B.24] (Eterna round: R97, puzzle: Exclusion 2)”, the “apparent KD of MS2 coat protein” value runs as follows: (input ligand: FMN 200 uM) 13.5 nM; (input ligand: none) 16 nM.

As to “ACAACUGUUCCCAAGCUUUACAUGAGGAUCACCCAUGUUCGUCAAGAUUUGUACCAUCUAACGUAUGGCUCAAGUAC [Eternabot (L1) Solution 48] (Eterna round: R97, puzzle: Sensor, turn-off variant 1)”, the “apparent KD of MS2 coat protein” value is, setting by setting: (input ligand: FMN 200 uM) 23 nM; (input ligand: none) 24.6 nM.

For the sequence “ACAAGAUCGGAAGGAUAUUGUACAUGAGGAUCACCCAUGUAAUAAAUGAGGAUCACGGAUGUAGACAAGAAGGUCCGGAUAAGA [Ostracism 4 - Jieux - Exclusion NG 2] (Eterna round: R96, puzzle: Exclusion NG 2)”, the “apparent KD of MS2 coat protein” value (input ligand: FMN 200 uM) amounted to 45.6 nM, the “apparent KD of MS2 coat protein” value under setting [2] came out at 30.8 nM and the “apparent KD of MS2 coat protein” value (input ligand: none) came to 36.2 nM.

As to “ACAAGCUCUGUGGGUGGUGACAUGAGGAUCACCCAUGUUUUGCUCGUCUUGUGCCGGGCCCGGCGCCCGGGCCCGGC [-40.5, -69.4, A 8%] (Eterna round: R97, puzzle: Sensor, turn-off variant 1)”, the “apparent KD of MS2 coat protein” value (input ligand: FMN 200 uM) turned out to be 261 nM and the “apparent KD of MS2 coat protein” value (input ligand: none) came to 715 nM.

In the case of “ACAAGCUUAAAAGGUGAUAACAUGAGGAUCACCCAUGUUCGUCUUAUAAAGAUCCUAUGUCGAAAGACAUAGGAUCA [Sensor 3, v1 - 68] (puzzle: Sensor v3, turn-off variant 1)”, the “apparent KD of MS2 coat protein” value was 18.8 nM under setting [3], 39.4 nM under setting [1] and 20.9 nM under setting [4].

As for “ACAAGCUUGUAAUGAUAGAACAUGAGGAUCACCCAUGUAAAUGGAAGAACCAAUUAGAUAAGAUAAACUCGUCUUAU [JR_STOV1_Sub002] (Eterna round: R97, puzzle: Sensor, turn-off variant 1)”, the “apparent KD of MS2 coat protein” value runs as follows: (input ligand: FMN 200 uM) 59.1 nM; (input ligand: none) 69.5 nM.

On to “ACAAGCUUUAGGCGUGUGAACAUGAGGAUCACCCAUGUAAAGUAGGUUAGGAGGUCUGUAAGGGAUGCUCGUCUUAU [JR_SWV3TOV1_Sub090] (puzzle: Sensor v3, turn-off variant 1)”, for which the “apparent KD of MS2 coat protein” value was 89.4 nM under setting [3], 45.5 nM under setting [1] and 113 nM under setting [4].

As to “ACAAGCUUUAGGCGUGUGAACAUGAGGAUCACCCAUGUAUUUUUGGUUAGGAGUUCUGUAAGGGAUGCUCGUCUUAU [JR_SWV3TOV1_Sub091] (puzzle: Sensor v3, turn-off variant 1)”, the “apparent KD of MS2 coat protein” value came out at 42.2 nM under setting [3], 55.1 nM under setting [1] and 48.9 nM under setting [4].

Consider “ACAAGCUUUGUUGGGUGGUACAUGAGGAUCACCCAUGUUGCGCUCGUCUUGUGGGCCCGGGCCCGCGGCCCGGGCCC [-41.5, -69.6, A 12%] (Eterna round: R97, puzzle: Sensor, turn-off variant 1)”, for which the “apparent KD of MS2 coat protein” value stood at 545 nM (input ligand: FMN 200 uM) and 663 nM (input ligand: none).

(Values after the supplement of paper PMC9170038.)
